One substance from publication PMC8861645 can be followed below.

Usually stoichiometry N stands for the number of molecules, sites or subunits per partner or assembly.

This test deals with PggH (phosphoguanylyl guanylate hydrolase), VCA0593 of Vibrio cholerae (Vibrio cholerae El Tor N16961). Put plainly: SEC. Background: SEC sorts molecules by how far they enter the pores of the column.

“PggH (phosphoguanylyl guanylate hydrolase), VCA0593 of Vibrio cholerae (enzyme)” registered a stoichiometry N of 2.
